Measured values from the supplement of paper PMC10126150.
± gives the standard deviation of the averaged measurements.

test system: ATP; test: switch fluorescence ratio, 500 uM ATP over buffer (Cy3 cluster intensity, sum of 5 cycles each) (fold (ratio)); higher = stronger signal-on switching upon ATP binding; sequences stand for … in TCGTCGGCAGCGTCAGATGTGTATAAGAGACAGTTTTTTTTTTTTTTTTTTTTTTTTT…TC; details: aptamer strand: ATP DNA aptamer (quencher-CACCTGGGGGAGTATTGCGGAGGAAGG + anchor), 100 nM annealed; ATP concentration: 500 uM
Outline: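 Between each of five buffer/ATP cycles, the flow-cell was stripped with NaOH and re-annealed. Each cycle imaged Cy3-labelled switching-strand clusters, annealed to 100 nM quencher-labelled ATP aptamer on a modified Illumina MiSeq flow-cell, first in selection buffer and then after 15 min with 500 uM ATP at 22 °C. The fluorescence ratio is summed target-cycle over summed buffer-cycle Cy3 intensity per cluster, averaged per switch-domain sequence, with clusters outside 100-1000 RFU excluded.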
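Further: ATP exposure 15 min at 22 °C before imaging.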

Sequence	switch fluorescence ratio
ATCAAGGTTC	0.9917 ± 0.0095
GGTTATGGTG	1.02 ± 0.02
CAGGTCAGGG	0.998 ± 0.014
GGGTTGCTAC	1.02 ± 0.017
TCGGCGTTCA	1.02 ± 0.02
CTTGGGGGCG	1.01 ± 0.056
GGACAGGCAT	0.9852 ± 0.0091
AAGCATTTAC	3.118 ± 0.021
TCTAAATCG	1.04 ± 0.055
CTAAGCTTTG	1 ± 0.035
TCTCGGTGAG	0.99 ± 0.051
AAGAGGGCGG	0.991 ± 0.034
ATCGTATTCA	1.01 ± 0.027
AAGGCTTAGC	1.03 ± 0.039
TAATCCATTT	1.02 ± 0.036
AAAAAAAAGA	0.996 ± 0.048
GGGATGGCAG	0.9816 ± 0.0059
GTGGATTTTC	1 ± 0.062
CTAAGGCCTG	0.97 ± 0.072
CGTATAATGT	0.996 ± 0.015
TGTTGGGGCT	0.999 ± 0.04
CGGGGAGTCG	0.945 ± 0.023
TGGTTCTTTT	1.02 ± 0.056
AGAACGGCGG	0.972 ± 0.085
CTGCGGATGG	1.058 ± 0.0066

Sequence	switch fluorescence ratio
TTGGGCCTGG	0.9806 ± 0.0061
GAGTCTGTGC	1.02 ± 0.043
AAATCACGTA	1.1818 ± 4.2e-05
TACCTGGTTA	0.999 ± 0.049
ATGGAAGGGC	1.01 ± 0.011
AGATGTTTGT	1.01 ± 0.038
TTGTTTATAG	0.985 ± 0.03
TGTTAGAATC	0.963 ± 0.012
ATGGAGAGAA	1.01 ± 0.039
TTTCGTGTAG	1 ± 0.032
TGATGGGATG	1.01 ± 0.038
CTTAACTTAG	1.047 ± 0.0015
GGGGCCAGAA	1.012 ± 0.0029
GGGGTTAACT	0.975 ± 0.022
AGCATAGCAT	1.01 ± 0.019
AGGAAGGCGG	1.02 ± 0.035
CATGGATAGC	0.963 ± 0.012
ATATTAGAGG	0.998 ± 0.037
CGCTTCTAGG	1.04 ± 0.024
TTGCAGCTTA	1.05 ± 0.035
GGAGATTGCG	0.96 ± 0.046
TGGATTTTCA	0.989 ± 0.03
CGTGGAGGGG	1.04 ± 0.013
GGGATTAGAT	0.982 ± 0.013
GGGGCATGCA	0.9897 ± 0.0081

Sequence	switch fluorescence ratio
TTAAGTAATA	1.02 ± 0.014
GACAGGTGGG	1.07 ± 0.059
GTATTCAAGA	1 ± 0.043
AGAGTTGGTC	1 ± 0.068
CCTATCGAAT	1.97 ± 1.1
GGGACCGGCA	1.01 ± 0.029
AAGAAGCAGA	1 ± 0.032
AAAATCAGCC	1.07 ± 0.053
ATTAGGTTGG	0.987 ± 0.027
GGGACAGAGG	0.988 ± 0.0047
AGGGACTGGT	1.01 ± 0.036
GGGTTAAACT	0.987 ± 0.023
GGCCGAAGGG	1.03 ± 0.066
GGGTGTTTGT	1 ± 0.018
CTTTACGTCG	0.982 ± 0.016
TGCCAACAGA	1.25 ± 0.39
TGACGCGTTT	1.02 ± 0.041
GTGGGATGAG	1.01 ± 0.022
TTTTCACGTT	1.07 ± 0.095
TCAGAGGGCT	0.991 ± 0.018
TTGTGGAAAC	1.02 ± 0.012
TGGATTGACT	1.058 ± 0.0013
GGTGACACTT	0.996 ± 0.033
AAGCGTGCCT	1.01 ± 0.018
CTCAGTATCT	0.972 ± 0.041

Sequence	switch fluorescence ratio
TTGTTATAGC	0.987 ± 0.042
TTTAGGGTCA	0.962 ± 0.062
CGAACGCCTG	1.1 ± 0.036
ACGATAACTT	1.21 ± 0.034
CGCGGTACGG	1.47 ± 0.39
TGCGGTAAA	1.09 ± 0.14
GGATTTTAGG	0.997 ± 0.019
ACTAAGCTTG	1 ± 0.033
TCTGACGTAC	2.57 ± 0.19
TCTAAATTTA	1.01 ± 0.06
GACGGAGGCA	1.03 ± 0.031
AGACCACTTG	1.036 ± 0.0069
AACGGACGGC	1.48 ± 0.098
TCCAGAAGTT	1.07 ± 0.057
GAGTGACCGA	1.01 ± 0.02
TTGAATACAC	1.11 ± 0.17
GGAACGAAAG	0.995 ± 0.043
GCAATATGGG	1.84 ± 0.2
TATCATTTTT	1 ± 0.011
AAGGGGAGGT	1.02 ± 0.041
AGTGTTTGG	0.997 ± 0.02
AATTCGATAG	0.966 ± 0.0039
TGTTTCCCGT	1 ± 0.022
TCAGGGACTT	0.9845 ± 0.0077
TTTGTGGGTC	0.995 ± 0.043

Sequence	switch fluorescence ratio
TGGAATAGGT	0.999 ± 0.031
CTTGACTGTG	1.03 ± 0.011
TGTTTTTAAA	0.979 ± 0.029
TATGAGCAGC	1.01 ± 0.066
AGTTTGGTCC	0.997 ± 0.035
GCTGTACTCA	1.43 ± 0.13
ACCGAATAAT	1.03 ± 0.019
ATAGTCTACG	1.02 ± 0.042
GCGGGGGTAC	1.11 ± 0.077
CGCGTTGGCA	1.04 ± 0.028
ACGTCCGTTT	1.04 ± 0.019
TTTTATGGGT	0.992 ± 0.018
AAAATGTCGG	0.998 ± 0.012
TTTTCTTTAT	1.03 ± 0.036
TAACTATTTT	1.01 ± 0.016
AAGGTAGCGC	0.974 ± 0.059
ACCTTATCCT	1.16 ± 0.012
CCGGGTTTAC	1.621 ± 0.013
AATGCCTCTT	1.013 ± 0.0028
CAGGTGGGGG	1.01 ± 0.033
AGATGATTGG	0.985 ± 0.023
GGGGAGAAAC	1.08 ± 0.042
GTTGAGTATA	1.01 ± 0.033
CGAGGCTCGT	1.02 ± 0.065
ATACGTCGGC	0.984 ± 0.046

Sequence	switch fluorescence ratio
GAGTCTTTTA	0.959 ± 0.013
GGGCCCGCAA	5.05 ± 0.21
GGGGTTGGTA	1.005 ± 0.006
CGTTTGGGAG	0.9739 ± 0.0061
ACAGATGGGA	1.04 ± 0.046
GGTGATGTGG	0.986 ± 0.022
ACCTAATTAG	1.06 ± 0.073
GCACGCGGCT	1.02 ± 0.019
ATGAAGGAGC	0.9917 ± 0.0046
GGTATCTGAT	1.03 ± 0.02
TAGAGAATCG	1.065 ± 0.0062
TCAGAAATGT	1.01 ± 0.021
CGGAGACGTG	1 ± 0.025
ATGTAAAAAC	0.965 ± 0.029
TGGGGTCGCT	0.9829 ± 0.001
TCTTAGGGAT	1 ± 0.052
CTGTTAATAG	1.12 ± 0.027
TTGTGATAGC	1.05 ± 0.075
TATATTTTAT	0.982 ± 0.035
GGGGCAAAAA	1.08 ± 0.12
AGACAGGGGA	1.02 ± 0.04
TAAGGGTTAC	0.996 ± 0.03
GATCGGGGGC	1.06 ± 0.14
GGAGAAATCG	1.06 ± 0.012
GGTACGAAAG	1.01 ± 0.026

Sequence	switch fluorescence ratio
CAAGTTTTTT	0.984 ± 0.016
TCGTCTAAGG	0.995 ± 0.014
TTGGAGCACT	1.38 ± 0.075
GGGTAATATG	1.01 ± 0.049
CATTTTTAAC	0.977 ± 0.014
GAAACTTGTG	0.963 ± 0.025
TTAGTGCCGG	0.994 ± 0.016
AGGCGAAGGG	0.993 ± 0.032
TGGGACTTTT	1.01 ± 0.053
AATGTTGCGT	0.99 ± 0.028
ACCCGTTGTT	1.01 ± 0.039
ATTTCTCTCT	0.993 ± 0.014
GGTTCAAGTT	0.9816 ± 0.0095
TCCGAGGCGG	2.131 ± 0.017
GACGGGGGGA	1.03 ± 0.077
GATGATAGCG	0.999 ± 0.025
AATGGAGTTT	1 ± 0.023
GAACGTTGGG	0.993 ± 0.033
CGCGACTAAA	0.9951 ± 0.0066
ATGGACGGTA	1.105 ± 0.0076
ATTTCAAAAG	0.974 ± 0.023
GTAGTGCCAG	1.02 ± 0.042
GTGTGTGGAC	1.01 ± 0.026
CTGTGGTATT	0.985 ± 0.018
GCTGAAGGGT	1.012 ± 0.0019

Sequence	switch fluorescence ratio
GGATCAGAGA	1.08 ± 0.023
TCATTAATTG	1.024 ± 0.0078
TGGGAGTATA	1 ± 0.032
ACTGGAGTTT	1.01 ± 0.023
TAGATTTTTG	0.982 ± 0.036
TCGTGTGACT	0.98961 ± 8.7e-05
TGGGGGATCA	0.978 ± 0.029
AGTGGGTGGG	0.9921 ± 0.0049
ACGGGACGCA	1.089 ± 0.0019
TGGTTTGCGC	1.36 ± 0.46
TACAGATTGG	0.979 ± 0.025
AGGAGTCGGT	1.01 ± 0.012
TTTCGGTAAA	1.026 ± 0.0039
CCGATAGATG	1.065 ± 0.0047
AAGCACGGTT	1.08 ± 0.093
AGATATAGGG	0.937 ± 0.012
GGGGGGGTCG	0.983 ± 0.048
ATACGGGATT	1.044 ± 0.0064
TACTTTCGGT	1 ± 0.013
AGATTGATCG	1.02 ± 0.015
CAGGTTTCTA	1 ± 0.043
ATTTACTGCG	1.01 ± 0.041
GCGGTTCTC	1.03 ± 0.029
AGTTAATTTC	0.989 ± 0.03
ATAGGTCCCG	1 ± 0.017
